Source: patent publication US20180236053A1 (published 2018)

B1: 27B6 scFv (tested as anti-CD38 CARs, versions V1, V2 and V3) (scFv)
scFv: QVQLKQSGPGLVQPSQSLSITCTVSGFSLTSYNIDWVRQSPGKGLEWLGVIWSGGSTDYNAAFISRLKISKDDSKSQVFFKMNSLQSDDTAIYYCARHSPLVSTPDWYFDVWGAGTTVTVSSGGGGSGGGGSGGGGSQIVLTQSPAIMSASPGEKVTMTCSTSSSVSYMHWYQQKSGTSPKRWIYDTSKLASGVPARFSGSGSGTSYSLTINNMEAEDAATYSCQQWSSYPPTFGGGTKLEIK
B2: GMB005 scFv (tested as anti-CD38 tool CARs, versions V1, V2 and V3) (scFv)
scFv: EVQLLESGGGLVQPGGSLRLSCAVSGFTFNSFAMSWVRQAPGKGLEWVSAISGSGGGTYYADSVKGRFTISRDNSKNTLYLQMNSLRAEDTAVYFCAKDKILWFGEPVFDYWGQGTLVTVSSASGGGGSGGGGSGGGGSEIVLTQSPATLSLSPGERATLSCRASQSVSSYLAWYQQKPGQAPRLLIYDASNRATGIPARFSGSGSGTDFTLTISSLEPEDFAVYYCQQRSNWPPTFGQGTKVEIK
B3: 16B5 scFv (tested as anti-CD38 CARs, versions V1, V2 and V3) (scFv)
scFv: QAYLQQSGAELVRSGASVKMSCKASGYTFTSYNLHWVKQTPGQGLEWIGYIYPGNGGTNYNQKFKGKATLTADTSSSTAYMQISSLTSEDSAVYFCARGGIYYYGSSLDYWGQGTTLTVSSGGGGSGGGGSGGGGSNIVLTQSPASLAVSLGQRATISCRASESVDNYGTTFMYWYQQKPGQPPKLLIYLASNLESGVPARFSGSGSGTDFTLTIDPVEADDAATYYCQQNKEDPWTFGGGTKLEIK
B4: 29B4 scFv (tested as anti-CD38 CARs, versions V1, V2 and V3) (scFv)
scFv: EVQLVESGGGLVKPGGSLKLSCAASGFTFSDYFMYWVRQTPEKRLEWVAIISDGGIYTYYPDSVKGRFTISRDNAKNNLYLQMSSLKSEDTAMYYCARDGRDDYDGWYFDVWGAGTTVTVSSGGGGSGGGGSGGGGSDIVMTQSHKFMSTSVGDRVNITCKASQDVNTAVAWYQQKPGQSPKLLIYWASTRHAGVPDRFTGSGSGTDYALTISSVQAEDLALYYCQQHYSTPRTFGGGTKLEIK
B5: 13F11 scFv (tested as anti-CD38 CARs, versions V1, V2 and V3) (scFv)
scFv: QIQLVQSGPELKKPGETVKISCKASGYTFKKYGMNWVKQAPGKGLKWMGWINTNTGEPTYAEEFKGRFAFSLETSASTAYLQINNLKNEDTATYFCARWYYGSTPSSYTMDYWGQGTSVTVSSGGGGSGGGGSGGGGSETTVTQSPASLSVATGEKVTIRCITSTDIDDDMNWYQQKPGEPPKVLISEGNTLRPGVPSRFSSSGYGTDFVFTIENTLSEDVADYYCLQSNNMPYTFGGGTKLEIK
B6: 10F7 scFv (tested as anti-CD38 CARs, versions V1, V2 and V3) (scFv)
scFv: QAYLQQSGAELVRSGASVKMSCKASGYTFTSYNMHWVKQTPGQGLEWIGYIYPGNGGTNYNQKFKDKATLTADTSSSTAYMQISSLTSEDSAVYFCARGGQLGRPWFAYWGQGTLVTVSAGGGGSGGGGSGGGGSNIVLTQSPASLAASPGQRATISCRASESVDSYGNTFMYWYQQKPGQPPKLLIYLASNLESGVPVRFSGSGSRTDFTLTIDPVEADDAATYYCQQNNEDPWTFGGGTKVEIK
B7: 25A10 scFv (tested as anti-CD38 CARs, versions V1, V2 and V3) (scFv)
scFv: EVQLQQSGAELVRPGASVKLSCTASGFNIKDSLIHWVKQRPEQGLEWIGWIDPEDDKTKYAPKFQDKATLTADTSSNTAYLQLSTLTSEDTAIYYCVSRYINYYFAYWGQGTTLTVSSGGGGSGGGGSGGGGSDIVMTQSPSSLTVTAGEKVTMSCKSSQSLLHSGNQRNYLTWYQQKPGQPPKLLIYWASTRESGVPDRFTGSGSGTDFTLTISSVQAEDLAVYYCQNDYDYPYTFGGGTKLEIK

Molecular target: CD38 antigen on the surface of cells (U266 CD38+, MOLP8, Daudi, T-ALL cell lines, activated T cells) (human, UniProt P28907 1-300)

Binder | Kd [nM]
B1 | 2.2
B2 | 119
B3 | 3.2
B4 | 0.52
B5 | 0.8
B6 | 30
B7 | 0.25
